B1: Regulatory protein rop, P03051 (parent)
chain: MTKQEKTALNMARFIRSQTLTLLEKLNELDADEQADICESLHDHADELYRSCLARFGDDGENL

Variants of: B1
Details: Escherichia coli, pH 7, Thermal, CD, Sodium phosphate 10 mM, NaCl 350 mM, structure 1ROP, whole UniProt chain shown; for ddG of mutation (higher = less stable): 69 °C

Variant	ddG of mutation (higher = less stable) [kcal/mol]	Tm [°C]	change of melting temperature, mutant - wild type (higher = more stable) [°C]
D30W	0.4	65.9	-2.8
D30C	-0.8	74	5.3
D30S	-1	74.7	6
D30P	1.6	58.9	-9.8
D30N	-0.8	73.8	5.1
D30L	0.1	68.4	-0.3
D30A	-0.3	71.2	2.5
D30H	-0.9	74.5	5.8
D30G	-2	80.3	11.6
D30R	-0.8	–	–
D30M	-0.6	72.7	4
D30I	0.8	63.4	-5.3
D30Y	-0.2	70.4	1.7
D30T	0.4	66.6	-2.1
D30K	-0.9	74.6	5.9
D30E	-1	74.9	6.2
D30F	0.1	68.3	-0.4
D30Q	-1.8	79.1	10.4
D30V	0.4	66.6	-2.1

Reference: FireProtDB (doi:10.1038/nsb0196-54)
